For this series, the target named is MIWI (mouse homologue of PIWI) (UniProt Q9JMB7 1-862). The series is described as follows: EMSA; shift abolished by MIWI antibody, not by Argonaute 3 antibody; competed by cold piR1; 20 mM HEPES (pH not stated), 3 mM MgCl2, 40 mM KCl, 5% glycerol, 2 mM DTT, 4 U RNase inhibitor; 5 ug MIWI in 25 ul; on ice, 30 min with probe (competitor/antibody 1 h before); 5% native PAGE. The conditions noted are these: protein: recombinant; tags: FLAG; label: 32P end label. A general note: In EMSA bound probe runs differently from free probe, usually more slowly.
Sequence of MIWI (mouse homologue of PIWI) (Q9JMB7 whole entry): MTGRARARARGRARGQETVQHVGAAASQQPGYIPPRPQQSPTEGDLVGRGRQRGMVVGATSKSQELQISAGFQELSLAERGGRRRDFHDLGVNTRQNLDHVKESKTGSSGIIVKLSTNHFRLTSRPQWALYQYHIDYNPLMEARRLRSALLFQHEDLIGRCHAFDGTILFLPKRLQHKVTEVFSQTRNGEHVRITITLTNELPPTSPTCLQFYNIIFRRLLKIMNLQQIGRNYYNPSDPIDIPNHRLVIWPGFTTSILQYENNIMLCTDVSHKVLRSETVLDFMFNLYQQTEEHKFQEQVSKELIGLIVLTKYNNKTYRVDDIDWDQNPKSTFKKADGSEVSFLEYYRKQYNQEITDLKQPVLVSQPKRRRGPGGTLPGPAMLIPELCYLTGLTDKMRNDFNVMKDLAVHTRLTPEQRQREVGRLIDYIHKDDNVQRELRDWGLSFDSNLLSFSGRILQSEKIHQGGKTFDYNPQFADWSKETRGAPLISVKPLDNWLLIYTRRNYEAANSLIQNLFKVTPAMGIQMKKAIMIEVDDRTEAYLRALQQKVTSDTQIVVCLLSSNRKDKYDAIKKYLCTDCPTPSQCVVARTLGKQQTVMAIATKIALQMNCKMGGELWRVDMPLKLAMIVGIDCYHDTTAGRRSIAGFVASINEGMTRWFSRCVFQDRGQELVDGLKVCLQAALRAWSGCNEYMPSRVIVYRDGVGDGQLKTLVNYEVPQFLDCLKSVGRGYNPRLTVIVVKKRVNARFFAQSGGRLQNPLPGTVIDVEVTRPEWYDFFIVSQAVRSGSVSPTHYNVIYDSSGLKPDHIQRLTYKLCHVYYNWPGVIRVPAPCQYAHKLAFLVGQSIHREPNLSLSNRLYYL

As for GAAGCAGAUGAGUAUAUG (ssRNA) [Sod oligo (FJ541118)], the binding result is listed as “binds”.
Next, UCAUUGGACAUAAACUGAAUUUUCCA (ssRNA) [spot A4 oligo (FJ541077)]: “binds”.

Source of the values: publication PMC8428117, “Y chromosomal noncoding RNAs regulate autosomal gene expression via piRNAs in mouse testis”.
